# From patent US10098967B2, “Self-assembly of therapeutic agent-peptide nanostructures” (Ohio State Innovation Foundation, priority 2012, dated 2018)
# Counter-ions that a name gives are not always drawn. Peptide text beside a SMILES is read from it. * marks the point of attachment. Succinyl(20-O-(20S)-CPT) = CC[C@@]1(OC(=O)CCC(=O)*)C(=O)OCc2c1cc1n(c2=O)Cc2cc3ccccc3nc2-1; Fmoc = O=C(OCC1c2ccccc2-c2ccccc21)*
# Assays:
# [1] = Solubility in PBS and water; format: physicochemical; details: for solubility in water: pure water (H2O)
# Protocol: Three CPT-tetrapeptide (KFKK (SEQ ID NO:6)) conjugates were prepared that have alternating hydrophobic and hydrophilic sequence similar to the dipeptide derivatives with one additional lysine bearing a charged free amine. Compound E, F, and G were soluble in both H2O and PBS but as hydrophobicity decreased by changing the N-termini from -Fmoc to —NH2, solubility in both solutions increased.
# [2] = Lactone stability in human serum (HS) by HPLC
# Protocol: FIG. 11 (A) is a graph showing lactone stability of CPT-dipeptides Ac-KK(CPT)-NH2 (C), and NH2—KK(CPT)-NH2 (D) in human serum (HS) at 37° C. (pH 7.4) at 1 and 10 mM, as monitored by HPLC. […] Samples were prepared at 10 mM in PBS and subsequently diluted to 1 mM in HS after 24 h.
# [3] = Hydrolytic (lactone) stability in PBS by HPLC; format: physicochemical; details: for lactone form present after 7 days: stored at 10 mM
# Protocol: The hydrolytic stability of C and D was measured by HPLC in PBS at 37° C. over a week as a function of concentration. […] The stability of the lactone depended strongly on the concentration (FIG. 11(A)). For example, the amount of lactone remaining after 7 days decreased from 91 to 30% for C upon changing the concentration from 10 to 0.2 mM). This progression is consistent with the non-covalent nature of the nanotube structures, which depend on concentration. However, even at 0.2 mM in PBS, 80% of the lactone remained after 24 h, in contrast to CPT, of which 17% of its structure was in the lactone form after 24 h under these conditions.
# [4] = tested on: mesothelioma tumor xenografts; experiment: Mesothelioma (MSTO) tumor xenograft model in mice; format: in vivo; details: for Deaths from Tumor Burden: MSTO model, mice, weekly
# Protocol: (§1) NH2—KK(CPT)-NH2 (D) was evaluated for efficacy in treating Lewis Lung Carcinoma (LLC) and mesothelioma tumor xenografts in mice. Animals were first injected with tumor cells either into the flank (LLC model; FIG. 12) or peritoneum (mesothelioma model; Table 2)), and allowed to develop small tumors. The animals were subsequently administered weekly either intravenous or intraperitoneal drugs or saline (negative control), and monitored for tumor burden and body weight over several weeks. […] But these initial studies were extremely limited in scope, only testing one of 15-20 structures that have been created. This lower efficacy is most likely due to reduced mobility of the 1D nanotubes within tissue, a property that can be beneficially exploited to increase the retention of drug within tumors by allowing the assembly process to respond structurally in the environment of the tumor cells.
# HT-29 cells [5] = experiment: Flow cytometry of cellular uptake as a function of time; format: cell-based, human; details: as a function of incubation time
# Protocol: To quantify the cellular uptake as a function of time, flow cytometry was conducted by monitoring the CPT dipetides at a wavelength of 420-470 nm after 335 nm excitation. […] An analogous flow cytometry study was performed with A549 cells, and similar results and trends were observed.
# [6] = tested on: Lewis Lung Carcinoma (LLC); experiment: Lewis Lung Carcinoma (LLC) flank tumor model in mice; format: in vivo; details: tumor cells into the flank, weekly intravenous or intraperitoneal
# Protocol: as §1
# HT-29 cells [7] = experiment: In vitro cell assay, HT-29 viability by MTS colorimetric assay; format: cell-based, human; details: HT-29, 4 days growth after exposure, conjugates prepared at 10 mM in PBS, aged 3 days
# Protocol: The conjugates discussed in Examples 1 and 2 were tested for efficacy against killing human colorectal cancer cells in an in vitro cell assay. HT-29 cells were plated into 96-well tissue culture plates, at a density of 5,000 cells/well, and allowed to grow overnight. The conjugates were previously prepared at 10 mM in sterile PBS and allowed to age 3 days, while all other Camptothecin drugs were prepared fresh for each experiment/replicate. Irinotecan HCl was dissolved in pH-neutral, sterile-filtered water, and S-Camptothecin and 10-hydroxycamptothecin were dissolved in DMSO due to solubility issues. Further dilutions of all drugs, both Camptothecin-peptides and free Camptothecin derivatives, were performed in cell culture medium. The cells were then exposed to serial dilutions containing the drugs or cell culture medium alone for the control. A peptide derivative was prepared without Camptothecin to serve as a control to test for toxicity of the peptides themselves, and was also tested in this assay. The cells were then allowed to grow for a further 4 days before being assessed for viability using an MTS colorimetric assay.
smiles,measurement,setting,value
"CC[C@@]1(OC(=O)CCC(=O)NCCCC[C@H](NC(=O)[C@H](CCCCNC(C)=O)NC(=O)OCC2c3ccccc3-c3ccccc32)C(N)=O)C(=O)OCc2c1cc1n(c2=O)Cc2cc3ccccc3nc2-1 [A, Fmoc-K(Ac)K(CPT)-NH2]",solubility in water,[1],poor solubility
"CC[C@@]1(OC(=O)CCC(=O)NCCCC[C@H](NC(=O)[C@H](CCCCN)NC(C)=O)C(N)=O)C(=O)OCc2c1cc1n(c2=O)Cc2cc3ccccc3nc2-1 [C, Ac-KK(CPT)-NH2]",lactone stability after dilution to 1 mM,[2],significantly greater stability than D
same,lactone remaining after 24 h,"[3]; 37° C., 0.2 mM",80%
same,lactone remaining after 7 days,"[3]; 37° C., 0.2 mM",30%
same,lactone form present after 7 days,[3]; 37° C.,91%
"CC[C@@]1(O)C(=O)OCc2c1cc1n(c2=O)Cc2cc3ccccc3nc2-1 [CPT, Camptothecin, reference compound]",time to hydrolysis to the inactive carboxylate form,[3],within hours
same,lactone remaining after 24 h,"[3]; 37° C., 0.2 mM",17%
same,Deaths from Tumor Burden,[4]; 5 mg/kg,0/5
"CC[C@@]1(OC(=O)CCC(=O)NCCCC[C@H](NC(=O)[C@H](CCCCN)NC(=O)OCC2c3ccccc3-c3ccccc32)C(N)=O)C(=O)OCc2c1cc1n(c2=O)Cc2cc3ccccc3nc2-1 [Compound B, Fmoc-KK(CPT)-NH2]",solubility in PBS,[1],poor solubility
"CC[C@@]1(OC(=O)CCC(=O)NCCCC[C@H](NC(=O)[C@H](CCCCN)NC(=O)[C@H](Cc2ccccc2)NC(=O)[C@H](CCCCN)NC(=O)OCC2c3ccccc3-c3ccccc32)C(N)=O)C(=O)OCc2c1cc1n(c2=O)Cc2cc3ccccc3nc2-1 [Compound E, Fmoc-KFKK(CPT)-NH2] (Fmoc-KFKK(Succinyl(20-O-(20S)-CPT))-NH2; N-terminus and C-terminus assumed)",solubility in PBS,[1],soluble
same,solubility in water,[1],soluble
"CC[C@@]1(OC(=O)CCC(=O)NCCCC[C@H](NC(=O)[C@H](CCCCN)NC(=O)[C@H](Cc2ccccc2)NC(=O)[C@H](CCCCN)NC(C)=O)C(N)=O)C(=O)OCc2c1cc1n(c2=O)Cc2cc3ccccc3nc2-1 [Compound F, Ac-KFKK(CPT)-NH2] (Ac-KFKK(Succinyl(20-O-(20S)-CPT))-NH2)",solubility in PBS,[1],soluble
same,precipitation in PBS at 10 mM,[1],remained highly soluble
same,solubility in water,[1],soluble
"CC[C@@]1(OC(=O)CCC(=O)NCCCC[C@H](NC(=O)[C@@H](N)CCCCN)C(N)=O)C(=O)OCc2c1cc1n(c2=O)Cc2cc3ccccc3nc2-1 [D, NH2—KK(CPT)-NH2]","cellular uptake (fluorescence, 420-470 nm after 335 nm excitation)",HT-29 cells [5],slightly higher than that of C
same,in vivo efficacy (tumor burden),[6],lower in vivo efficacy
same,solubility in PBS,[1],limited solubility
same,lactone form present after 7 days,[3]; 37° C.,71%
same,Deaths from Tumor Burden,[4]; 5 mg/kg,2/5
same,Deaths from Tumor Burden,[4]; 15 mg/kg,2/5
same,in vivo efficacy (tumor burden),"[4]; mesothelioma model, tumor cells into the peritoneum, weekly intravenous or intraperitoneal",lower in vivo efficacy
"CC[C@@]1(OC(=O)CCC(=O)NCCCC[C@H](NC(=O)[C@H](CCCCN)NC(=O)[C@H](Cc2ccccc2)NC(=O)[C@@H](N)CCCCN)C(N)=O)C(=O)OCc2c1cc1n(c2=O)Cc2cc3ccccc3nc2-1 [G, NH2—KFKK(CPT)-NH2] (H-KFKK(Succinyl(20-O-(20S)-CPT))-NH2)",solubility in PBS,[1],soluble
same,precipitation in PBS at 10 mM,[1],remained highly soluble
same,solubility in water,[1],soluble
"CCc1c2c(nc3ccc(OC(=O)N4CCC(N5CCCCC5)CC4)cc13)-c1cc3c(c(=O)n1C2)COC(=O)[C@]3(O)CC [Irinotecan HCl, reference compound]","cellular uptake (fluorescence, 420-470 nm after 335 nm excitation)",HT-29 cells [5],highest fluorescence
same,potency in killing human colorectal cancer cells (viability),HT-29 cells [7],the least potent
same,Deaths from Tumor Burden,[4]; 100 mg/kg,0/5
